For the assay, the target named is T1, FLAG-tagged PXR K109A (human, UniProt O75469 1-434, K109A).
T1 sequence (looked up): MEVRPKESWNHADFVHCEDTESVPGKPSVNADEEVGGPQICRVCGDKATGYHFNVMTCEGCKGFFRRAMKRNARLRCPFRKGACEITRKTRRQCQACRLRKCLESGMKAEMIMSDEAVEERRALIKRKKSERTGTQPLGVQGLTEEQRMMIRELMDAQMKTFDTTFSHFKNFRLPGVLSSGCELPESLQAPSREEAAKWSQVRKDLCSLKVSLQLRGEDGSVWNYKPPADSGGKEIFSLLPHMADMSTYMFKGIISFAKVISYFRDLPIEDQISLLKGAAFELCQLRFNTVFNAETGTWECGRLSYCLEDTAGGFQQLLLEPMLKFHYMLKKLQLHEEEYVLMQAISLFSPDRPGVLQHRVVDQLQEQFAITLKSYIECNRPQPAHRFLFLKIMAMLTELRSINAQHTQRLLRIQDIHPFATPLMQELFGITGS
The assay can be described thus: co-IP.

B1: His-tagged BRD9 (natural protein, UniProt Q9H8M2 1-597, looked up)
chain: MGKKHKKHKAEWRSSYEDYADKPLEKPLKLVLKVGGSEVTELSGSGHDSSYYDDRSDHERERHKEKKKKKKKKSEKEKHLDDEERRKRKEEKKRKREREHCDTEGEADDFDPGKKVEVEPPPDRPVRACRTQPAENESTPIQQLLEHFLRQLQRKDPHGFFAFPVTDAIAPGYSMIIKHPMDFGTMKDKIVANEYKSVTEFKADFKLMCDNAMTYNRPDTVYYKLAKKILHAGFKMMSKQAALLGNEDTAVEEPVPEVVPVQVETAKKSKKPSREVISCMFEPEGNACSLTDSTAEEHVLALVEHAADEARDRINRFLPGGKMGYLKRNGDGSLLYSVVNTAEPDADEEETHPVDLSSLSSKLLPGFTTLGFKDERRNKVTFLSSATTALSMQNNSVFGDLKSDEMELLYSAYGDETGVQCALSLQEFVKDAGSYSKKVVDDLLDQITGGDHSRTLFQLKQRRNVPMKPPDEAKVGDTLGDSSSSVLEFMSMKSYPDVSVDISMLSSLGKVKKELDPDDSHLNLDETTKLLQDLHEAQAERGGSRPSSNLSSLSNASERDQHHLGSPSRLSVGEQPDVTHDPYEFLQSPEPAASAKT
With B1, the “interaction relative to that between FLAG-PXR and BRD9-His” value is 0.3 fold.

For the origin of these results see article doi:10.1101/2023.02.03.527063 (bioRxiv, 2023).
